Reference: PMC4048323 (Nature medicine, 2014)

Target: T1, mouse Ebi3 subunit of recombinant IL-35, V5-His-tagged (mouse, UniProt O35228 19-228)
T1 sequence: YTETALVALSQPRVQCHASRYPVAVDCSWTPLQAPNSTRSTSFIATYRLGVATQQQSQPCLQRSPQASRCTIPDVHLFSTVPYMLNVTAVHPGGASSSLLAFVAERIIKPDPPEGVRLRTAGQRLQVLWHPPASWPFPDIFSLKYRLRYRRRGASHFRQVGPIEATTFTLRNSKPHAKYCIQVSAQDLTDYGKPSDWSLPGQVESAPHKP
Assay: co-IP

B1: mouse IL-12p35 (p35) subunit of recombinant IL-35, Flag-tagged (natural protein)
chain: RVIPVSGPARCLSQSRNLLKTTDDMVKTAREKLKHYSCTAEDIDHEDITRDQTSTLKTCLPLELHKNESCLATRETSSTTRGSCLPPQKTSLMMTLCLGSIYEDLKMYQTEFQAINAALQNHNHQQIILDKGMLVAIDELMQSLNHNGETLRQKPPVGEADPYRVKMKLCILLHAFSTRVVTINRVMGYLSSA
  binding result: binds
